Laboratory results published in patent US20170304435A1 (GOVERNING COUNCIL OF THE UNIVERSITY OF TORONTO, published 2017).

Assays:
[1] = biological target: the molecule itself; test: native PAGE and FLAG immunoblot, HBP-treated Jurkat cells
[2] = biological target: T1, TRAF2, endogenous in Jurkat cells (UniProt Q12933 2-501, limits assumed); test: FLAG-TIFA immunoprecipitation from Jurkat cells, immunoblot for TRAF2
T1 construct: Endogenous protein probed by immunoblot with rabbit anti-TRAF2 (sc-876)
T1 sequence (looked up): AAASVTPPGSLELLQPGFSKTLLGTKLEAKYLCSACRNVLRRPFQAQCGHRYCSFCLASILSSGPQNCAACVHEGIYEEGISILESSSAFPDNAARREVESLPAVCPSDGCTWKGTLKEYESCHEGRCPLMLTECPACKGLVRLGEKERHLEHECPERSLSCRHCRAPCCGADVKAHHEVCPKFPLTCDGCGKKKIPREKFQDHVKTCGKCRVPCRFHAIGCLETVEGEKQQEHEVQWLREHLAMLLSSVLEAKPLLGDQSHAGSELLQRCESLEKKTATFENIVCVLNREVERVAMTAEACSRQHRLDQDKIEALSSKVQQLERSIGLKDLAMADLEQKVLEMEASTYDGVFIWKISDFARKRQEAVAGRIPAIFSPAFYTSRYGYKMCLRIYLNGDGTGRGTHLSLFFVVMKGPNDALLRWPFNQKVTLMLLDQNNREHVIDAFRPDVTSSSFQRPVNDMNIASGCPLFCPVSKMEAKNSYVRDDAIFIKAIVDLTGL
Protocol: Briefly, cells were lysed in 50 mM Hepes-KOH pH 8.0, 100 mM KCl, 2 mM EDTA, 0.1% NP40, 10% glycerol. Soluble cell lysates were pre-cleared for 2 hr with mouse IgG agarose (Sigma) and immunoprecipitated overnight at 4° C. Proteins eluted using 0.5 M NH₄OH pH 11 (for mass-spectrometry), or 3× FLAG-peptide (Sigma) (immunoblot analysis). […] Data were analyzed by Scaffold PTM (Proteome).

[3] = biological target: T2, TRAF6 (ubiquitin ligase, tumor necrosis factor receptor-associated factor 6), endogenous in Jurkat or 293T … (UniProt Q9Y4K3 1-522); test: FLAG immunoprecipitation from HBP-treated Jurkat cells, immunoblot for TRAF6
T2 construct: Endogenous protein detected by immunoblot or immunostaining with mouse anti-TRAF6 (sc-8409)
T2 sequence (looked up): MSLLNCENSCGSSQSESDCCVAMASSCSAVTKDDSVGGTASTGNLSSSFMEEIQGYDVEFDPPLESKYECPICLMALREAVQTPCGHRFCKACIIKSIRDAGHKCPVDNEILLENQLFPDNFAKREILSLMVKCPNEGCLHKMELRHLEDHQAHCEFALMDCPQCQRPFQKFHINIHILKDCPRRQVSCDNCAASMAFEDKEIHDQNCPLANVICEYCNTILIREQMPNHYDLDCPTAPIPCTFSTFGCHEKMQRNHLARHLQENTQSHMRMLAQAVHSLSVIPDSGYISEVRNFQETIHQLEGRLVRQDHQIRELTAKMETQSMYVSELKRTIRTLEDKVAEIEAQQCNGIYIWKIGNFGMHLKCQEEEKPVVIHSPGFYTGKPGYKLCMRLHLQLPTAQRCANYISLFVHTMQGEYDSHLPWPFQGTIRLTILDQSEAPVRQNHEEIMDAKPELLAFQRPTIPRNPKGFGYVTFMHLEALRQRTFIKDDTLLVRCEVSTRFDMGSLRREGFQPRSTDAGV
Protocol: Briefly, cells were lysed in 50 mM Hepes-KOH pH 8.0, 100 mM KCl, 2 mM EDTA, 0.1% NP40, 10% glycerol. Soluble cell lysates were pre-cleared for 2 hr with mouse IgG agarose (Sigma) and immunoprecipitated overnight at 4° C. Proteins eluted using 0.5 M NH₄OH pH 11 (for mass-spectrometry), or 3× FLAG-peptide (Sigma) (immunoblot analysis).

[4] = biological target: the molecule itself; test: confocal microscopy of FLAG-TIFA aggregates in HBP-treated 293T cells
[5] = biological target: the molecule itself; test: confocal microscopy of TIFA aggregates in HBP-treated 293T cells

B1: FLAG-TIFA wild type (TRAF-interacting forkhead associated protein A with one N-terminal FLAG sequence), from HBP-treated cells (other, not shown: small tags and cut ends)
chain: MTSFEDADTEETVTCLQMTVYHPGQLQCGIFQSISFNREKLPSSEVVKFGRNSNICHYTFQDKQVSRVQFSLQLFKKFNSSVLSFEIKNMSKKTNLIVDSRELGYLNKMDLPYRCMVRFGEYQFLMEKEDGESLEFFETQFILSPRSLLQENNWPPHRPIPEYGTYSLCSSQSSSPTEMDENES
modifications: phospho-threonine 9 (pT9), found only after treatment with HBP
notes: Forms oligomers after HBP; also called FLAG-TIFA wildtype (wt); Wt
- binding result [1]: binds
- binding result [2]: no binding

B2: FLAG-TIFA G50E/S66A (mutations in the FHA domain) (other, not shown: small tags and cut ends)
chain: MTSFEDADTEETVTCLQMTVYHPGQLQCGIFQSISFNREKLPSSEVVKFERNSNICHYTFQDKQVARVQFSLQLFKKFNSSVLSFEIKNMSKKTNLIVDSRELGYLNKMDLPYRCMVRFGEYQFLMEKEDGESLEFFETQFILSPRSLLQENNWPPHRPIPEYGTYSLCSSQSSSPTEMDENES
notes: Double point mutant of FLAG-TIFA; stably expressed with endogenous TIFA knocked down; also called FHA mutant
- binding result [3]: no binding

B3: FLAG-TIFA E178A (mutation in the TRAF6 binding site) (other, not shown: small tags and cut ends)
chain: MTSFEDADTEETVTCLQMTVYHPGQLQCGIFQSISFNREKLPSSEVVKFGRNSNICHYTFQDKQVSRVQFSLQLFKKFNSSVLSFEIKNMSKKTNLIVDSRELGYLNKMDLPYRCMVRFGEYQFLMEKEDGESLEFFETQFILSPRSLLQENNWPPHRPIPEYGTYSLCSSQSSSPTAMDENES
notes: Point mutant of FLAG-TIFA; stably expressed with endogenous TIFA knocked down; also called TRAF6 (E178A) mutant
- binding result [4]: binds
- binding result [3]: no binding

B4: FLAG-TIFA T9A (other, not shown: small tags and cut ends)
chain: MTSFEDADAEETVTCLQMTVYHPGQLQCGIFQSISFNREKLPSSEVVKFGRNSNICHYTFQDKQVSRVQFSLQLFKKFNSSVLSFEIKNMSKKTNLIVDSRELGYLNKMDLPYRCMVRFGEYQFLMEKEDGESLEFFETQFILSPRSLLQENNWPPHRPIPEYGTYSLCSSQSSSPTEMDENES
notes: Point mutant of FLAG-TIFA made with QuickChange II; stably expressed with endogenous TIFA knocked down
- binding result [5]: no binding
- binding result [3]: no binding
